In publication PMC11077065:

Columns and labels:
[1] = biological target: PhiPA3 ChmC (Chimallin C, gp61), full-length (bacteriophage PhiPA3); experiment: SEC-MALS
[2] = biological target: PhiPA3 ChmC-ΔC (residues 204-251 removed) (bacteriophage PhiPA3); experiment: SEC-MALS

PhiPA3 ChmC (Chimallin C, gp61), full-length (natural protein)
stoichiometry N [1]: 4

PhiPA3 ChmC-ΔC (residues 204-251 removed) (domain or fragment)
stoichiometry N [2]: 4
